Measurements published in US9359446B2, “Antibody to a carbonic anhydrase” (Hemholtz Zentrum Munchen—Deutches Forschungszentrum Fur …, priority 2010, dated 2016).

Assays:
[1] = test system: A549 lung cancer cells; test: Inhibition of metabolic activity and growth in 3-dimensional A549 tumour spheroids (MTT-assay, pictures); format: cell-based, human
Protocol: Metabolic acitivity of the spheroid was measured two days later by means of a MTT-assay and reading of the extinction at 595 nm (Cory et al. 1991). All data are represented as mean±standard error. Comparisons between non-treated and treated spheroids were performed using t-tests.
A549 lung cancer cells were plated onto a cushion consisting of 1% (v/v) agarose in PBS on a 96-well cell culture plate. […] Instead cells spontaneousely form 3-dimensional structures termed tumour spheroids.
FIG. 7, Upper: Some of the spheroids were cultivated in the presence of EXO 6A10 (final concentration 10 μg/ml) whereas others were cultivated with acetazolamide (AAZ, final concentration 100 μM). Control spheroids were cultivated without any additional treatment (Unbeh.). The metabolic acitivity of the spheroid was measured two days later by means of a MTT-assay as described and reading of the extinction at 595 nm (Cory et al. 1991). For each group, 10 spheroids were included, the mean value, the standard deviation were calculated. All data are represented as mean±standard error. Comparisons between non-treated and treated spheroids were performed using t-tests, calculated using Prism4 (GraphPad Software, La Jolla).
FIG. 7, Lower: A549 spheroids were cultivated for two days with EXO 6A10 or left untreated.

[2] = target: T1, CA-XII (Homo sapiens, UniProt O43570); test: CA-XII inhibition by EXO 6A10 and azetazolamide; format: biochemical; conditions: compared to sulfonamid azedazolamide
[3] = test system: peripheral blood mononuclear cells (PBMC), melanoma cell lines; test: Flow cytometry binding to peripheral blood mononuclear cells and melanoma cell lines; design: species or system human; conditions: hybridoma supernatant diluted 1:5
Protocol: FIG. 4A. Permanent human cancer cell lines were incubated with EXO 6A10 (hybridoma supernatant diluted 1:5 in 2% (v/v) FCS (i.e., fetal calf serum) in PBS) for 15 min on ice, washed three times in PBS/2% (v/v) FCS and then stained with a specific secondary antibody (goat-anti-rat IgG/Cy5) for another 15 min on ice. Binding of 6A10 was then measured by flow cytometry in a Becton Dickinson FACS Calibur device and FlowJo software (Treestar Inc.). An antibody of the identical isotype with an irrelevant specificity (glutathione-S-transferase) was used as control. (grey are=isotype control; black line=EXO 6A10). No binding to peripheral blood mononuclear cells (PBMC) and to two melanoma cell lines (not shown) was detectable. […] Exosomes were isolated from malignant ascites by differential centrifugation (500×g; 10.000×g; 70.000×g) and resuspended in PBS. The protein concentration was measured in a standard Bradford assay. 2 μg protein were pipetted onto a nitrocellulose membrane. Membranes were incubated with the different primary antibodies. After washing, membranes were incubated with a specific secondary antibodiy (anti-rat IgG/peroxidase). Ganglioside GM1 was detected with cholera toxine subunit B/peroxidase. Membranes were developed with the ECL system.

[4] = target: T1, CA-XII; test: Flow cytometry binding to murine L929 cells transfected with human CA-XII; design: expressed in transfected cells; host or cells: murine L929 cells
Protocol: (§1) Murine L929 cells were transfected with an expression plasmid encoding human CA-XII. […] As a control, binding of EXO 6A10 to non-transfected L929-cells was tested (FIG. 10, grey area, L929). […] the binding of membrane localized overexpressed human CA-XII.

[5] = test system: non-transfected L929-cells; test: Flow cytometry binding to non-transfected L929 cells (control); design: species or system murine
Protocol: as §1

[6] = target: CA-II (Homo sapiens, UniProt P00918); test: EXO 6A10 inhibition of CA II; format: biochemical

T1 sequence (O43570 25-354): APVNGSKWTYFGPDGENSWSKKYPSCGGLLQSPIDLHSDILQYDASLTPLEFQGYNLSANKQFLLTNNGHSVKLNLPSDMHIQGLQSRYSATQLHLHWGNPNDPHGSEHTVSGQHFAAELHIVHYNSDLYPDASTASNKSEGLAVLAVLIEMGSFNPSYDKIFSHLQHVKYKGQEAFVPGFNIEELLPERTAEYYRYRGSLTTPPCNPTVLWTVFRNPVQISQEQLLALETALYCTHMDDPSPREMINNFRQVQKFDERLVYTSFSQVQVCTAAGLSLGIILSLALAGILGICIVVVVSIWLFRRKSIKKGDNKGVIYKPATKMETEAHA

- inhibition of CA-XII enzyme activity relative to azedazolamide [2]: 40 times
- binding to L929 cells transfected with human CA-XII [4]: binds to transfected
- inhibition of CA-II [6]: does not significantly inhibit
B1: EXO 6A10: rat monoclonal antibody raised to human CA-XII; CDRs SEQ ID NOs 1 to 6, VH SEQ ID NO. 7, VL SEQ ID NO. 8 (protein)
light: MARVFQQDDIVMTQTPATLSVTPGESVSLSCRASQGISTSIHWYQQKSNESPRLLIKFASQSISGIPSRFSGSGSGTDFTLSINRVESEDFSVYFCQQTYSLPYTFGAGTKLELKRADGCTNCIHLSRRSPTIFSAAMENRCSSFILSRFSGCILKLILRTMLTTSSGTVVGG
VH: EVKLEESGPGLVQPSETLSLTCTVSGFSLTTYSVSWVRQPSGKGPEWMGRMWYDGDTVYNSALKSRLSISRDTSKNQVFLKMNSLETDETGTYYCTRDFGYFDGSSPFDYWGQGVMVTVSSAETTAPSVYPLAPGTALKSNSMVTLGCLVKILLKNSSHPEDLAAALPIVSRITPDGYGVQAQVLKQLILFTMRKKQ
- metabolic activity of spheroids (MTT-assay, extinction at 595 nm) ([1]; A549 spheroids, 10 μg/ml, two days): inhibition of metabolic activity
- size and density of A549 spheroids ([1]; cultivated for two days, versus untreated spheroids): much smaller and much more dense
- growth of tumour cell line A549 ([1]; hypotoxic culture conditions): inhibits the growth
- binding to PBMC and two melanoma cell lines [3]: No binding
- binding to non-transfected L929 cells [5]: not to non-transfected cells
